Measurements reported in patent US8153424B2, “Method of in vitro differentiation of neural stem cells, motor neurons and dopamine neurons from primate embryonic stem cells” (Wisconsin Alumni Research Foundation, priority 2001, dated 2012).

System: hESC-derived neuroectodermal cells
Assay: Midbrain regionalization and DA neuron differentiation, immunocytochemistry and cell counting
Type: cell-based, human
Conditions: FGF8 100 ng/ml applied at day nine for six days, expanded in FGF8 four days, then SHH six days
Protocol: Differentiation and enrichment of neuroectodermal cells. hESC colonies were detached from MEF layer by the treatment of the culture with 0.2 mg/ml of dispase (Roche Diagnostics) and grown as floating cell aggregates (embryoid body) for four days with a daily change of ESC medium. They were then grown in an adherent substrate in a neural medium consisting of DMEM/F12 (2:1), supplemented with N2 (Gibco), 0.1 mM non-essential amino acids, 2 μg/ml heparin with a medium change every other day. The ESC aggregates attached and formed individual colonies at around day six. […] The neural rosettes were isolated through differential enzymatic response (Zhang et al., supra, 2001). Growth factors were added during the course of differentiation to influence regionalization (see results).
DA neuron differentiation. The enriched neuroectodermal cells were dissociated by 0.025% trypsin and 0.27 mM EDTA in PBS at 37° C. for 10-15 minutes and plated onto 12-mm coverslips (pre-coated with 100 μg/ml polyornithine and 10 μg/ml laminin) at a density of 40,000-50,000 cells/coverslip. […]
Immunocytochemistry and cell quantification. […] Staining was visualized with a Nikon fluorescence microscope. […] The cells in ten visual fields were randomly selected and counted from each coverslip.

B1: FGF8: fibroblast growth factor 8 (protein, UniProt P55075 23-233, looked up)
Fibroblast growth factor 8: QEGPGRGPALGRELASLFRAGREPQGVSQQHVREQSLVTDQLSRRLIRTYQLYSRTSGKHVQVLANKRINAMAEDGDPFAKLIVETDTFGSRVRVRGAETGLYICMNKKGKLIAKSNGKGKDCVFTEIVLENNYTALQNAKYEGWYMAFTRKGRPRKGSKTRQHQREVHFMKRLPRGHHTTEQSLRFEFLNYPPFTRSLRGSQRTWAPEPR
**Q.** With B1 as the molecule, how does the “En-1 expression in nestin-expressing neuroectodermal cells” value read?
**A.** Its value is “En-1 expression was observed”.
